T1: RAD51 (UniProt Q06609 1-339)
T1 construct: No tag is named; also called RAD51 recombinase; source: E. coli BLR pRARE (pET11-RAD51), purified (ammonium sulfate, Q Sepharose, hydroxyapatite, Mono-Q)
T1 sequence (looked up): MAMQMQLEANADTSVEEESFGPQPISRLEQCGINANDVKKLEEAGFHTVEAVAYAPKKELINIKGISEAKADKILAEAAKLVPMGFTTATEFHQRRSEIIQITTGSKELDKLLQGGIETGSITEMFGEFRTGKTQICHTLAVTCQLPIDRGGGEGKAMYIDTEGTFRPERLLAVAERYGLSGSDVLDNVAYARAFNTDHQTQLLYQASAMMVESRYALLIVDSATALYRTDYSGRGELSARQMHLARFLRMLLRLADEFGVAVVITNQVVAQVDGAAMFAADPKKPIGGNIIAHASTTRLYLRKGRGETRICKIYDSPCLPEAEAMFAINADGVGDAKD

T2: CTRB (Homo sapiens, UniProt P51587 3194-3418)
T2 sequence: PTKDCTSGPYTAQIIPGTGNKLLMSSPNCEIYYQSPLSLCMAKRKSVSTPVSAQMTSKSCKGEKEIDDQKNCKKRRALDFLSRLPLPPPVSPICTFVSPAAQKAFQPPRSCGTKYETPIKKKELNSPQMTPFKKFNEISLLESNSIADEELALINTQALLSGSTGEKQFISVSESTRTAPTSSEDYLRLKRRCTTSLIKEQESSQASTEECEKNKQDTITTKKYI


Experiments:
RAD51 [1] = biological target: T1, RAD51; assay: pull-down; GST-tagged TR2 polypeptides captured on glutathione-Sepharose with RAD51; 10 µl buffer K (20 mM KH2PO4 pH 7.5, 0.5 mM EDTA, 10% glycerol, 0.01% Igepal) with 150 mM KCl; SDS-PAGE, Coomassie; conditions: both partners purified
CTRB = biological target: T2, CTRB; assay: EMSA; highest affinity of the three DNAs; EMSA: 10 nM DNA, 35 mM Tris pH 7.5, 1 mM MgCl2, 1 mM DTT, 100 ug/ml BSA, 50 mM KCl, 25 C, 5 min; 8% native PAGE in TAE; conditions: protein: recombinant; tags: N-term His6-thioredoxin-S (pET32a), C-term Flag; label: 5' Cy5 on H3; fork 1:2, 40 bp duplex with two 40 nt ssDNA arms
RAD51 [2] = biological target: T1, RAD51; assay: pull-down; CTRB species held through the S-tag on S-Protein agarose; RAD51 and CTRB 4 µg each; 25 µl buffer T (25 mM Tris-HCl pH 7.5, 0.5 mM EDTA, 10% glycerol, 0.01% Igepal) with 150 mM KCl and Benzonase; on ice 30 min, resin 1 h at 4 °C; SDS-PAGE, Coomassie; conditions: both partners purified

Row | Binder | binding result (RAD51 [1]) | binding result (RAD51 [2]) | further results
1 | GST-TR2 with deletion of residues 3306-3310 (domain or fragment, human, UniProt P51587 3265-3330, looked up, BRCA2, human, TR2 region, residues 3265-3330, internally truncated; source: E. coli Rosetta (pGEX-TR2 variant), purified (glutathione-Sepharose, SP Sepharose); not shown: GST, N-terminal, kept) CKKRRALDFLSRLPLPPPVSPICTFVSPAAQKAFQPPRSCGPIKKKELNSPQMTPFKKFNE | binds | – | –
2 | Fork substrate (Oligo-H3/H5) (mixed) DNA 1: TTGATAAGAGGTCATTTGAATTCATGGCTTAGAGCTTAATTGCTGAATCTGGTGCTGGGATCCAACATGTTTTAAATATG DNA 2: CATATTTAAAACATGTTGGATCCCAGCACCAGATTCAGCATACGTTACCGATCGTACGTTCGATGCTGGCTACTGCTAGC | – | – | binding result (CTRB): binds
3 | GST-TR2 (BRCA2 residues 3265-3330) (domain or fragment, human, UniProt P51587 3265-3330, looked up, BRCA2, human, TR2 region, residues 3265-3330; also called BRCA2-TR2 polypeptide; source: E. coli Rosetta (pGEX-TR2), purified (glutathione-Sepharose, SP Sepharose); not shown: GST, N-terminal, kept) CKKRRALDFLSRLPLPPPVSPICTFVSPAAQKAFQPPRSCGTKYETPIKKKELNSPQMTPFKKFNE | binds | – | –
4 | GST-TR2 with deletion of residues 3291-3295 (domain or fragment, human, UniProt P51587 3265-3330, looked up, BRCA2, human, TR2 region, residues 3265-3330, internally truncated; source: E. coli Rosetta (pGEX-TR2 variant), purified (glutathione-Sepharose, SP Sepharose); not shown: GST, N-terminal, kept) CKKRRALDFLSRLPLPPPVSPICTFVKAFQPPRSCGTKYETPIKKKELNSPQMTPFKKFNE | binds | – | –
5 | CTRB (BRCA2 residues 3194-3418), His6-Thioredoxin-S tagged, C-terminally Flag-tagged (domain or fragment, human, UniProt P51587 3194-3418, looked up, BRCA2, human, residues 3194-3418 of the 3,418-residue protein; No tag cleavage is described; also called wild-type CTRB; source: E. coli Rosetta (pET32a), purified (Ni-NTA, Source S, anti-Flag M2, Mono-Q)) PTKDCTSGPYTAQIIPGTGNKLLMSSPNCEIYYQSPLSLCMAKRKSVSTPVSAQMTSKSCKGEKEIDDQKNCKKRRALDFLSRLPLPPPVSPICTFVSPAAQKAFQPPRSCGTKYETPIKKKELNSPQMTPFKKFNEISLLESNSIADEELALINTQALLSGSTGEKQFISVSESTRTAPTSSEDYLRLKRRCTTSLIKEQESSQASTEECEKNKQDTITTKKYI | – | binds | –
6 | CTRB-4A (BRCA2 residues 3194-3418, KKRR(3266-3269) to AAAA) (domain or fragment, human, UniProt P51587 3194-3418, looked up, BRCA2, human, residues 3194-3418; also called 4 A mutant; source: E. coli Rosetta (pET32a), purified as the wild type) PTKDCTSGPYTAQIIPGTGNKLLMSSPNCEIYYQSPLSLCMAKRKSVSTPVSAQMTSKSCKGEKEIDDQKNCAAAAALDFLSRLPLPPPVSPICTFVSPAAQKAFQPPRSCGTKYETPIKKKELNSPQMTPFKKFNEISLLESNSIADEELALINTQALLSGSTGEKQFISVSESTRTAPTSSEDYLRLKRRCTTSLIKEQESSQASTEECEKNKQDTITTKKYI | – | binds | –
7 | CTRB-S3291A (domain or fragment, human, UniProt P51587 3194-3418, looked up, BRCA2, human, CTRB (residues 3194-3418) with S3291A; Called a CTRB mutant purified as wild-type CTRB; source: E. coli, purified using the procedure developed for wild-type CTRB) PTKDCTSGPYTAQIIPGTGNKLLMSSPNCEIYYQSPLSLCMAKRKSVSTPVSAQMTSKSCKGEKEIDDQKNCKKRRALDFLSRLPLPPPVSPICTFVAPAAQKAFQPPRSCGTKYETPIKKKELNSPQMTPFKKFNEISLLESNSIADEELALINTQALLSGSTGEKQFISVSESTRTAPTSSEDYLRLKRRCTTSLIKEQESSQASTEECEKNKQDTITTKKYI | – | binds | –
8 | CTRB-S3291E (domain or fragment, human, UniProt P51587 3194-3418, looked up, BRCA2, human, CTRB (residues 3194-3418) with S3291E; Called a CTRB mutant purified as wild-type CTRB; source: E. coli, purified using the procedure developed for wild-type CTRB) PTKDCTSGPYTAQIIPGTGNKLLMSSPNCEIYYQSPLSLCMAKRKSVSTPVSAQMTSKSCKGEKEIDDQKNCKKRRALDFLSRLPLPPPVSPICTFVEPAAQKAFQPPRSCGTKYETPIKKKELNSPQMTPFKKFNEISLLESNSIADEELALINTQALLSGSTGEKQFISVSESTRTAPTSSEDYLRLKRRCTTSLIKEQESSQASTEECEKNKQDTITTKKYI | – | binds | –

From PMC9879961 (Nature Communications, 2023)
